Source: patent publication US20250145684A1
Like-named read-outs stand apart in the source and are kept apart here.

Target: HLA-B*08:01 (human)
Assay: UV peptide exchange ELISA

peptide exchange yield (remark: other sources report otherwise) | peptide exchange yield | Binder
50 to 75% |  | EPVTKAEM [EPVTKAEM (SEQ ID NO: 97)]
 | 50 to 75% | FAFEKLIQF (modifications not checked) [… (SEQ ID NO: 101)]
